From the DeepSol protein solubility set

Assay: soluble on expression in E. coli; label from the status in PepcDB or PDB records

## MNFPISTIRIGGWVVVAKNPDDIVAKFYFAKKKLIWEFLFGEPETNTLRLKRKIEIQWNDVSSFEESISSRDETGILKIELKKRPTFFIETNPQAGKHTQWKQLDHDFTGDHASNYRRHTLHFPPGVLQKNLEKLVTDSFWSKLYEVPFPVHESRYFDSGFENNSSRNSHSHTVGFNVNNGPQHHFSQGIGGVGVGEGNFSMANGGWQRNSYSPVNSLNYNTANEFFGMQATPPSSQVVNEHYNTQNDFTGSQFGYHMNQDEIQKILESQAYAVPDTQTKLMSSAMNNVPKYPQAGSCLESMLFWYEHRRRFQQ
  soluble on expression in E. coli: soluble

## MDLKVVVSLSSRLYTDEIAKMQQRIGCILPLASTHGTQNVQGLGLGQVYSLETVPDYVSMYNYLSDCTLAVLDEVSVDSLILTKIVPGQTYAIKNKYQPFFQWHGTGSLSVMPPVFGREHATVKLESNDVDIVFPMVLPTPIAEEVLQKILLFNVYSRVVMQAPGNADMLDVHMHLGSVSYLGHHYELALPEVPGPLGLALLDNLSLYFCIMVTLLPRASMRLVRGLIRHEHHDLLNLFQEMVPDEIARIDLDDLSVADDLSRMRVMMTYLQSLASLFNLGPRLATAAYSQETLTATCWLR
  soluble on expression in E. coli: not soluble

## MGSDKIHHHHHHMTQITPQPGIMDIALYQGGAAHVDGVSNVTKLSSNENPLGPSPAAVEAMAEAAATMHRYPSSDHATLRAAIAETHGLDAERIICGAGSDEIIAFLCQCYAGPGDEVLYTEHGFAMYRISALAAGATPVEVKERERVTDVDALLAGCTAQTKLVFIANPNNPTGTMISEAEVARLADGIPEDAILVLDGAYAEYVEGFDAGAQLIAARHNVVMTRTFSKIYGLGGARVGWAYGPQEIIDVLNRVRGPFNVSTTALAGAEAAVRDTDYVQRCRLENAKWRGWLADQLAELGVPSDTSCTNFILARFASQSEAESCDDFLKQRGLIVRRVAGYNLPTALRITIGDETACRAVAAAVKDFKAGAAE
  soluble on expression in E. coli: not soluble

## MGTEVSTSPTSLIDQTVVPGDVVLDLSNMTNQTIKLGSGLRQDNEVISVMRAGKLRYSKPNKYWVESSHKRYVPRPEDHVLGIVVDCKGENYWIDIKGPQLALLPVLAFEGANRRNYPKFEVSTLLYTRVVKTNTGMNPELSCVDESGKAAGFGPLKDGFMFETSTGLSRMLLSSPTCPVLEALGKKLSFETAFGLNGRCWVHAAAPRIVIIVANALMNSETLSGTQQRIMVEKLLEKISD
  soluble on expression in E. coli: soluble

## MAYWLFKTEPDTFSIDTLRTQKVSCWEGVRNYQARNMMRDQVKVGDFVLIYHSSCKNVGVAGIAKVVREAYPDHFQFDPESDYYDPKSDPDNPRWIMVDIEFVRKTARVIPLSVMKAMPELENMPLVKRGNRLSIMPVTEDEWEAILGKEKLPSQRLEHHHHHH
  soluble on expression in E. coli: soluble

## MSLLKQKILNRESGIITYGITPPKKNNTEEKIKEISQKHIERISGLDIDGLVIYDLQDEKERVSEERPFPFIETIDPQIYSENYLKDLKIPKIIYRCVGKYTPDEFRRLTRPVSGQDAFSVFVGAASRNQSVLLKLSDAYKIRQDVNPDLLLGGVAIPERHMKNTDEHLRIIDKINKGCKYFITQAVYNVEAAKDFLSDYYYYSKNNNLKMVPIIFTLTPCGSTKTLEFMKWLGISIPRWLENDLMNCEDILNKSVSLSKSIFNELMEFCLEKGIPIGCNIESVSVRKVEIEASIALAKDIKYIMKGEGHHHHHH
  soluble on expression in E. coli: soluble

## MGSDKIHHHHHHMNTLASIQELARAIRNMIRTGIVVETDLDAGRCRVQTGGIYTDWLQWLTHRAGRSRTWWAPSIGEQVMILAVGGELDTAFVLPGIYSDDNPAPSASADAWHVEFPDGAVMSYEPETGALTVTGIKTADVTASDSVAVSVPVVLVKAETRVTLDTPEVVCTNKLTTGTLEVKQGGKMSGDIEHSGGAFTSNGVQVDKHGHGGIRRGDEWTEGTQ
  soluble on expression in E. coli: not soluble

## MGHHHHHHSHMKPVKHLLTTSNKSANVPALTTKKGLHNLPLSPELKEKHNAKLIHDKIEPMVLRSPPTGESILRYALPIPSSKTKNLLPEDEMIGKIIKHLKMVVSTLEETYGHCDQNGEEPFVKHEHEELSLSVGDDMNSFLTYCSQFAAQLEEALKEEQNILESLFKWFQWQVNQMEEISKDQTLLQAEPPKPDKTVILNIAEIVRLVQRFEELKNRLKQRSKSSVKVMLSKTMDKENRPEAVKSCEALAQKIEEFLEAHSTDEFKDVSATEPQL
  soluble on expression in E. coli: soluble

## MERVYRTDLKLLRYFLAVAEELHFGRAAARLNMSQPPLSIHIKELENQLGTQLFIRHSRSVVLTHAGKILMEESRRLLVNANNVLARIEQIGRGEAGRIELGVVGTAMWGRMRPVMRRFLRENPNVDVLFREKMPAMQMALLERRELDAGIWRMATEPPTGFTSLRLHESAFLVAMPEEHHLSSFSTVPLEALRDEYFVTMPPVYTDWDFLQRVCQQVGFSPVVIREVNEPQTVLAMVSMGIGITLIADSYAQMNWPGVIFRPLKQRIPADLYIVYETQQVTPAMVKLLAALTQ
  soluble on expression in E. coli: soluble

## MAHHHHHHMDHQDLKPVIWHKTEKKTKPKDIHEARKLGIDVEVEKKYFGGKNKSSKGNLIIENKAKIEQETENFKIDRVTPAFSRALQQARISKKLTQAQLARLVNESESVIKEYENGKAIPNNVIIQKLNKVLGVNLPSPKKK
  soluble on expression in E. coli: soluble

## MTALFCLELRTNIFLIMNDCIIINYWKGFIFSFHSYFFPFRFESSLRAHYPGKRNYSDFSVIPLPYYIDVRSFHICESQHIIALPLQIPLPYRMLIRMYPV
  soluble on expression in E. coli: soluble

## MVSVSVVIATLKPRDEIEAIQCLEDQTFDDFEVIVCDKSPVTRARNEGIRQSSSDKIVFLDDDSRPQPGYLEKANDVLETEAAYAGRTIHPVDDVFARHFTAHYDWGGDPCYVDHFWGCNMGVHRDVFKTVGGWDEEMGWGHEEKELARRVRSEFDIRYDPELVVDHPYASSITDYWKKQYKLETKSPYYWSKCNVSRADQLKNIFCETFDPLNYVRITPVATMIEAGSTVAKTAGRLRGFLDHTHHEEGRGGVPDIDRPSQSPERSGLEHHHHHH
  soluble on expression in E. coli: not soluble

## MPYKNILTLISVNNDNFENYFRKIFLDVRSSGSKKTTINVFTEIQYQELVTLIREALLENIDIGYELFLWKKNEVDIFLKNLEKSEVDGLLVYCDDENKVFMSKIVDNLPTAIKRNLIKDFCRKLS
  soluble on expression in E. coli: soluble

## MTVPHIPRGPVMADIAAFRLTEEEKQRLLDPAVGGIILFRRNFQNIEQLKTLTAEIKALRTPELIIAVDHEGGRVQRFIEGFTRLPAMSTLGEIWDKDGASAAETAAGQVGRVLATELSACGIDLSFTPVLDLDWGNCPVIGNRSFHRNPEAVARLALALQKGLTKGGMKSCGKHFPGHGFVEGDSHLVLPEDWRSLSELETADLAPFRIMSREGMAAVMPAHVVYPQVDTKPAGFSEIWLKQILRRDIGFKGVIFSDDLTMEGACGAGGIKERARISFEAGCDIVLVCNRPDLVDELREDFRIPDNPTLAQRWQYMANTLGSAAAQAVMQTADFQAAQAFVAGLASPQDTAGGVKVGEAF
  soluble on expression in E. coli: not soluble

## MGSDKIHHHHHHMNQATRNVLWMTGIKKSFSGVPALWGVDFELKAGEIHALVGENGAGKSTLIKIMTGAYRRDSGVMEYDQKTVAFENPIQAQAAGIVAVYQEIQLVGLRTVAENIFLSREPNRFGIIDRRAMNARAADILKRLGLHIDPHSVVGSLNIAHRQMVAIARAISFGARVLILDEPTSSLTKTEVSVLFDVMRRLKSEGTSIVYISHRFEELYTVCDRVTVLRDGRNIVTRSLSMLTRLELVCFMLGRKPEEVSKRVTAFARQSQNMLGQPVLLQAEALKYKKRLNGVSIEVQHGEIVGLAGLLGSGRSETVRALFGAEPLEGGTVKLEGSLLSLRDPHDAIDAGIAFLSEDRKADGIIPELSVRENLTLAALPNLTQWGIVSKKRQSELALRFMERLDIKAASIEQKIRFYTNSGCNYDSSDRGSFLLYPLYAFRPSYRCSRRQRGGCTACGYPCGAREIYSLYN
  soluble on expression in E. coli: not soluble

## MEHIYKLLRSFKWDCAKYLYKNTLNFKVKRLRRKKNIRVLFAVAESATWKSDCLYKAMAEHPRFTPSILVLPDEQKEKTLLKEEVDSCFNLFCRKGYACTYPYQNGKLINIRKKLKPDIIFYQKPYTFYPKSLLYYKNMNALFCYTNYAFHSLLTDWANDNEFFRLMWQNYYENESANVDLKKKFAGIFSNIVVTGLPVTDLFLTEKHEDKWKKTDKSRKRIIWAPHFSISDGGCLNYSTFLSIAEELLEFIKNTQLPVQMAFKPHPLLKSQLYNYSSWGKEKTDEYYAAWEFLPNAQLETNEYVDLFMTSDAMIHDCGSFTIEYHHTLKPVMYLVNGKEHTATMNSFAKAAYDLHYKGQTIQDIRNFIECTVLENSDYLLEKRKNFFKSYLLPPHNQSATENIIHAILGTGYYTEKKQR
  soluble on expression in E. coli: not soluble

## MSYPSLFAPLDLGFTTLRNRVLMGSMHTGLEEHPDGAERLAAFYAERARHGVALIVTGGIAPVPSGVVMTGGAMLNDASQLTPHRVVTDAVHAQGGKIALQILHTGRYSYQPHLVAPSAIQAPINRFMPHELTHDEILQLIDDFAHCAQLAREAGYDGVEVMGSEGYLINEFLTRRTNHRDDEWGGDYASRMRFAVEVVRAVRQRVGNDFIIIYRLSMLDLVENGGTFDETVQLAQAIEAAGASLINTGIGWHEARIPTIATPVPRGAFSWVTRKLKGHVSVPLIATNRINDPQVAETILTRGDADMVSMARPFLADAEFLTKAQSGRADEINTCIGCNQACLDRIFIGKVTSCLVNPRACHETHMPITPAIRKKNLAVVGAGPAGLAFAINAASRGHHVTLFDAQSEIGGQFTIARQIPGKEEFYETLRYYRRMIDVTGVTLKLNQRVNAEDLQPFDEAILACGIVPRRPPIDGIDHPKALTYLEVLRDKAPVGKRVAIIGCGGIGFDTAMYLSQHGESTSQNIAEFCTEWGIDTSLQQAGGLRPEGPRLARSPRQIVMLQRKTSKPGEGLGKTTGWIHRATLLARGVKMIPAVSYQKIDDDGLHLLIGGEPQLLEVDHVVICAGQEPRRELADPLRAAGKTVHLIGGCDVAMELDARRAIAQGTRLALEI
  soluble on expression in E. coli: not soluble

## MVGNPALAELLRAPRLIPWRNWSGAQSCLPLAREAPKDLDELVRIIRQASGRIRPVGSGHSFSALVPTDGTLLSLAYFSGLLSHDSVTLQAEFGGGTPMSQMGAPLKEIGQALVNMADIDYQTLAGAIATSTHGTGVGFGSYSAQVRGLQLVTASGEVLECDAKRNVEVFDAARVSLGALGVVTRVRLQNRAAYRLRERQWIARTEELLEDVEKNTRENQHWEMLVVTHSDYALSIALNETDEPKTPPLDPAKEGGNEFVGLIEGLDKYLSDFPETRRTLLNSLRHFARFDERVDDSYAVYANVRNVRFNEMEYSVPAEHGPACLREILALIRDKDLRTWFPIEYRYVKADDIPLSMFEGRDSCSISVHQHYSMDHHNFFAAVEPIFWKYAGRPHWGKLHGLNAHQLQGLYPRWKAFAEVRQALDPRGRFLNAHLSSILGVTKLAAALEHHHHHH
  soluble on expression in E. coli: not soluble

## MSLEKVLVIVGPTAVGKTALSIALAKKFNGEIISGDSMQVYRSLDIGTAKVTETEKEGIPHYLIDCREVSETYSAADFQKEGRQKIKEITEKGKLPIIVGGTGLYIQSLLYDFQLGSREIDDSPEIRETYNLFAEEKGNQALWLLLQQKDPLAANSIHFNNRKKVIRALEVFDKTGYSILTPKEKPARLYDYYLLGLETDRALLYERINQRVDQMMTEGLLEEAKQMFQQPHAQAAQGIGYKEFFPYFSGEQSLEMAVETVKQQSRRYAKRQLTWFRNRMAAHWWNLVQQPTDLPKLEKEVAEWLQQKESEEGHHHHHH
  soluble on expression in E. coli: soluble

## MEKSEGGDQPESAGEKEQVHQGADQQVQREKRRRSVSPDGGDVGSVKMADVVLEGASDVAVTKKRKITEEAAAAAKVNSEAITSATGPNTSTQAAASANEEDDKDKEDDKDAKKKKNRCGECRKKVGLTGFQCRCGGLYCAVHRYSDKHNCTFDYREHGAQEIRRNNPVVVGEKIQKILEHHHHHH
  soluble on expression in E. coli: not soluble
